# Molecular target: T1, HIV-1 HXB2 envelope protein (ENV), gp41 transmembrane subunit (HIV-1 HXB2, UniProt P04578 33-856)
# Assay: cell-based or functional assay
Binder,"IC50 value, viral infectivity",inhibitory concentration at 50% infectivity (IC50)
LLQLTVWGIKQLQARILK (sphinganine on the side chain of the C-terminal Lys) [N17K-sphinganine],287 nM,
LLQLTVWGIKQLQARILK (sphinganine on the N-terminus) [Sphinganine-N17K],,116 nM

# Molecular target: HIV-1 LAI ENV (CXCR4 tropic) (HIV-1 LAI, UniProt P03377 33-861)
# Assay: cell-based or functional assay
row,Binder,"IC50, infection of TZM-bl cells by pseudotyped virus"
1,LLQLTVWGIKQLQARIL (sphinganine (dihydrosphingosine) on the N-terminus) [Sphinganine-N17],312 nM

# Molecular target: HIV-1 AD8 ENV (CCR5 tropic) (HIV-1 AD8)
# Assay: cell-based or functional assay
row,Binder,"IC50, infection of TZM-bl cells by pseudotyped virus"
1,LLQLTVWGIKQLQARIL (sphinganine (dihydrosphingosine) on the N-terminus) [Sphinganine-N17],403 nM

# Molecular target: T1, HIV-1 HXB2 envelope protein (ENV), gp41 …
# Assay: cell-based or functional assay
# Remark: another data set of the same source
row,Binder,"IC50 (nM), antiviral activity in a fully infectious HIV-1 system"
1,"ELQLTQWKIKQLLARILK (sphinganine on the side chain of the C-terminal Lys) [N17mut (e, g) K-sphing]",120 nM
2,LLQLTVWGIKQLQARILK (sphinganine on the side chain of the C-terminal Lys) [N17K-sphinganine],291 nM
3,"ELQLTQWKIKQLLARILK [N17mut (e, g) K]",> 4000 nM
4,LQARILAVERYLKDQQL (sphinganine on the N-terminus) [Sphinganine-ShN17],886 nM
5,LLQLTVWGIKQLQA [N14],> 4000 nM
6,"ELQLTQWKIKQLLARILK (sphinganine on the N-terminus) [Sphing-N17mut (e, g) K]",120 nM
7,LLQLTVWGIKQLQARIL (cholesterol on the N-terminus) [Cholesterol-N17],> 4000 nM
8,LLQLTVWGIKQLQARIL (tocopherol (alpha-tocopherol succinate) on the N-terminus) [Tocopherol-N17],> 4000 nM
9,YTSLIHSLIEESQNQQEKNK [DP19K],2210 nM
10,YTSLIHSLIEESQNQQEKNK (sphinganine on the side chain of the C-terminal Lys) [DP19K-sphinganine],350 nM
11,LLQLTVWGIKQLQARIL (sphingosine on the N-terminus) [Sphingosine-N17],208 nM
12,LLQLTVWGIKQLQARIL [N17],> 4000 nM
13,LLQLTVWGIKQLQARILK (sphinganine on the N-terminus) [Sphinganine-N17K],118 nM
14,LLQLTVWGIKQLQARILK [N17K],> 4000 nM
15,LLQLTVWGIKQLQARIL (palmitic acid (C16) on the N-terminus) [Palmitic acid-N17],> 4000 nM
16,LLQLTVWGIKQLQA (sphinganine on the N-terminus) [Sphing-N14],500 nM
17,LLQLTVWGIKQLQARIL (sphinganine (dihydrosphingosine) on the N-terminus) [Sphinganine-N17],121 nM

# Reference: patent US20150045291A1 (YEDA RESEARCH AND DEVELOPMENT, published 2015)
